Reference: patent US20180346912

Assays:
IFN-γ (human) [1] = target: T1, IFN-γ (human) (UniProt P01579); assay: SPR; settings: biotinylated DNA on SA chip, 1x PBS + 50 mM NaCl, 0.05% NP-40, 25 C
T1 sequence: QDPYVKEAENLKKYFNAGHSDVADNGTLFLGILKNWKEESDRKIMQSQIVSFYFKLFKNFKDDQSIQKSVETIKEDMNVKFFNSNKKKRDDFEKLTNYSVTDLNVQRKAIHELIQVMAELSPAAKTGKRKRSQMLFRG

IFN-γ (human) [2] = target: T1, IFN-γ (human); assay: competition; settings: PBS, 0.005% NP-40, 37 C
[3] = tested on: T2, VEGF165 (human), P15692-4; assay: competition; settings: n = Ds unnatural base in DNA, phosphate buffer pH 7.4, 0.005% NP-40, 37 C
T2 sequence: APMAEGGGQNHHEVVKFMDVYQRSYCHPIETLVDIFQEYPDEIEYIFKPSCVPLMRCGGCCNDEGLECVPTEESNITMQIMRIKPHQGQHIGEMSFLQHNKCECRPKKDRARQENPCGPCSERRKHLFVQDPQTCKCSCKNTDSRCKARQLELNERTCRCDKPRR

[4] = n = Ds unnatural base in DNA, EMSA competition vs 32P-Aptamer 49 (=1.00)
[5] = EMSA competition vs 32P-Aptamer 47 (=1.00)

CCCGCCCGGGTCCGCGAAGCGGTAGGTNTGGGCTAGGCNGCTGGCGGGCGCGAAGCG [Aptamer 57GCmh (IFN-γ)]
Kd (IFN-γ (human) [1]; n = Ds unnatural base in DNA): 0.033 nM | binding signal (IFN-γ (human) [2]; [4]): 1.53

CCCGCCCGGGTCGCCTANTGGCGTAGGTNTGGGCTAGGCNGCTGGCGGGCGCGAAGCG [Aptamer 58GC (IFN-γ)]
binding signal (IFN-γ (human) [2]; [4]): 0.24

CGGTAAACTGCGTCCGAAGGGGCNTGCAGTGANCCCGAATGGGTCCG [Aptamer 47 (VEGF)]
binding signal ([3]; reference): 1

GCGGTAAACTGCGTCCGAAGGGGCNTGCAGTGANCCCGAATGGGTCCGC [Aptamer 49 (VEGF)]
binding signal [3, 5]: 1.53

GCGGTAAACTGCGTCCGAAGGGGCNTGCAGTGANCCCGAATGGGTCCGCCGCGAAGCG [Aptamer 58mh (VEGF)]
binding signal [3, 5]: 1.58

GCGGTAAGCCGCGTCCGAAGGGGCNTGCGGCGANCCCGAATGGGTCCGC [Aptamer 49GC (VEGF)]
binding signal [3, 5]: 1.5

GCGGTAAGCCGCGTCCGAAGGGGCNTGCGGCGANCCCGAATGGGTCCGCCGCGAAGCG [Aptamer 58GCmh (VEGF)]
binding signal [3, 5]: 1.59

TCCACTCGGGTCATTTANTAATGTAGGTNTGGGCTAGGCNGCTAGTGGA [Aptamer 49 (IFN-γ)]
Kd (IFN-γ (human) [1]; n = Ds, 7-(2-thienyl)-3H-imidazo[4,5-b]pyridin-3-yl unnatural base in DNA): 0.046 nM | binding signal (IFN-γ (human) [2]; n = Ds, 7-(2-thienyl)-3H-imidazo[4,5-b]pyridin-3-yl unnatural base in DNA, reference, EMSA competition): 1

TCCACTCGGGTCATTTANTAATGTAGGTNTGGGCTAGGCNGCTAGTGGACGCGAAGCG [Aptamer 58 (IFN-γ)]
Kd (IFN-γ (human) [1]; n = Ds unnatural base in DNA): 0.038 nM | binding signal (IFN-γ (human) [2]; [4]): 1.29

TCCACTCGGGTCCGCGAAGCGGTAGGTNTGGGCTAGGCNGCTAGTGGACGCGAAGCG [Aptamer 57mh (IFN-γ)]
binding signal (IFN-γ (human) [2]; [4]): 1.4
